Measured values taken from US8110387B2, “Polypeptide having NADH dependent HMF reductase activity” (C5 Ligno Technologies Lund AB, priority 2007, dated 2012).
Positions count from the first letter of the chain named. In names and notes the source's numbering stands.

What was measured:
Type in all cases: biochemical, Saccharomyces cerevisiae
[1] = In vitro NADH-dependent furan reductase activity of ADH1 mutants in cell extracts, furfural as substrate; set-up: key: —: no detectable activity; detectable activity (ranging from moderate (+) to very high (+++)); detectable activity (ranging from moderate (+) to very high (+++)); detectable activity (ranging from moderate (+) to very high (+++)); conditions: 10 mM furfural, 200 μM NADH, cell extract of CEN.PK 113-5D transformant, pH 6.7, 30° C.
Protocol: (§1) Plasmid carrying individual or combined mutations within the ADH1 gene were introduced in strain CEN.PK 113-5D by transformation according to the lithium acetate method (Gietz et al., 1992, Improved method for high efficiency transformation of intact yeast cells. Nucleic Acids Research 20:1425). Selection was performed on SD plates without uracil. The resulting strains were grown aerobically at 30° C. in 25 mL SD medium without uracil (in 250 mL baffled flask). Cell extracts were prepared by harvesting the cells at OD620 7.5-8.5, re-suspending the cells in Y-PER solution (Pierce, Rockford, Ill., USA), 1 mL/0.6gr cells, shaking at room temperature for 50 min. The supernatant was collected after centrifugation for 20 min at 15000 g. In vitro NADH-dependent furan reductase activity was measured by following the oxidation of NADH at 340 nm in a Hitachi U-2000 spectrophotometer (Hitachi, Tokyo, Japan). The assay consisted of 10 mM furaldehyde (HMF or furfural), 200 μM NADH and cell extract in 100 mM phosphate buffer (pH 6.7) at 30° C.

[2] = In vitro NADH-dependent furan reductase activity of ADH1 mutants in cell extracts, HMF as substrate; set-up: key: —: no detectable activity; detectable activity (ranging from moderate (+) to very high (+++)); detectable activity (ranging from moderate (+) to very high (+++)); detectable activity (ranging from moderate (+) to very high (+++)); conditions: 10 mM HMF, 200 μM NADH, cell extract of CEN.PK 113-5D transformant, pH 6.7, 30° C.
Protocol: as §1

[3] = Enzyme kinetics of Adh1 variants, NADH-dependent reduction of furfural
Protocol: (§2) Cells were grown aerobically at 30° C. in 25 mL SD medium without uracil (in 250 mL baffled flask). Cell extracts were prepared by harvesting the cells at OD620 7.5-8.5, re-suspending the cells in Y-PER solution (Pierce, Rockford, Ill., USA), 1 mL/0.6 gr cells, shaking at room temperature for 50 min. The supernatant was collected after centrifugation for 20 min at 15000 g.
(§3) In vitro NADH-dependent furan reductase activity was measured by following the oxidation of NADH at 340 nm in a Hitachi U-2000 spectrophotometer (Hitachi, Tokyo, Japan). NADH-dependent aldehyde reduction was determined (Wahlbom and Hahn-Hägerdal, 2002) with 200 μM NADH. Reduction kinetics were determined for acetaldehyde (range […]-100 mM), furfural (100 μM-20 mM) and HMF (500 μM-20 mM). For native Adh1 furfural was used up to 40 mM.
(§4) Modeling was performed according to the Michaelis-Menten equation with the addition of a substrate inhibition constant: V=(Vmax·[S])/(Km+[S]+[S]2/KI), V—velocity, Vmax—maximal velocity, Km—affinity constant, Ki—substrate inhibition constant, and [S]—substrate concentration. Parameter value estimation was according to the least square method, using the solver function in Microsoft® Excel 2002. HMF activity parameters of strain BY474-ADH1-S117L were estimated without the substrate inhibition constant due to a clear discrepancy of the substrate inhibition model with actual data.

[4] = Enzyme kinetics of Adh1 variants, NADH-dependent reduction of acetaldehyde
Protocol: as §2, §3, §4

[5] = 200 μM NADH, cell extract of BY4741

B1: V59T-Q148E-I152V-L117S-Y295C: mutated Adh1 from TMB3000 with reverse mutation at position 110 (protein, UniProt P00330 2-348, looked up, variant V59T Q148E I152V L117S Y295C)
Alcohol dehydrogenase 1: SIPETQKGVIFYESHGKLEYKDIPVPKPKANELLINVKYSGVCHTDLHAWHGDWPLPTKLPLVGGHEGAGVVVGMGENVKGWKIGDYAGIKWLNGSCMACEYCELGNESNCPHADSSGYTHDGSFQQYATADAVQAAHIPQGTDLAEVAPVLCAGITVYKALKSANLMAGHWVAISGAAGGLGSLAVQYAKAMGYRVLGIDGGEGKEELFRSIGGEVFIDFTKEKDIVGAVLKATDGGAHGVINVSVSEAAIEASTRYVRANGTTVLVGMPAGAKCCSDVFNQVVKSISIVGSCVGNRADTREALDFFARGLVKSPIKVVGLSTLPEIYEKMEKGQIVGRYVVDTSK
- NADH-dependent Activity Furfural Reductase [1]: +
- NADH-dependent Activity HMF reductase [2]: +

B2: V59T-Q148E-I152V-S110P-L117S: mutated Adh1 from TMB3000 with reverse mutation at position 295 (protein, UniProt P00330 2-348, looked up, variant V59T Q148E I152V S110P L117S)
Alcohol dehydrogenase 1: B1 Alcohol dehydrogenase 1 with S109P, C294Y
- NADH-dependent Activity Furfural Reductase [1]: +

B3: BY4741-control: native S. cerevisiae Adh1 (V59, S110, L117, Q148, I152, Y295) overexpressed in ΔAdh1 strain BY4741 (protein, UniProt P00330 2-348, looked up)
Alcohol dehydrogenase 1: B1 Alcohol dehydrogenase 1 with T58V, S116L, E147Q, V151I, C294Y
- [S]Vmax - substrate concentration at observed Vmax [3]: 30 mM
- Ki (substrate inhibition constant) [3, 5]: 1363 mM
- obsVmax (observed Vmax) ([3]; substrate furfural): 4345 mU/mg
- Km ([3]; substrate furfural, 200 μM NADH, cell extract of BY4741): 18.8 mM
- Vmax ([3]; substrate furfural, 200 μM NADH, cell extract of BY4741, model with substrate inhibition): 6530 (mU)/mg
- [S]Vmax - substrate concentration at observed Vmax [4]: 1 mM
- Ki (substrate inhibition constant) [4, 5]: 12.5326 mM
- obsVmax (observed Vmax) ([4]; substrate acetaldehyde): 35300 mU/mg
- Km ([4]; substrate acetaldehyde, 200 μM NADH, cell extract of BY4741): 0.217 mM
- Vmax ([4]; substrate acetaldehyde, 200 μM NADH, cell extract of BY4741, model with substrate inhibition): 45070 (mU)/mg

B4: S110P: native Adh1 with the single substitution S110P (protein, listed as Saccharomyces cerevisiae)
chain: MSIPETQKGVIFYESHGKLEYKDIPVPKPKANELLINVKYSGVCHTDLHAWHGDWPLPTKLPLAGGHEGAGVVVGMGENVKGWKIGDYAGIKWLNGSCMACEYCELGNEPNCPHADSSGYTHDGSFQQYATADAVQAAHIPQGTDLAEVAPVLCAGITVYKALKSANLMAGHWVAISGAAGGLGSLAVQYAKAMGYRVLGIDGGEGKEELFRSIGGEVFIDFTKEKDIVGAVLKATDGGAHGVINVSVSEAAIEASTRYVRANGTTVLVGMPAGAKCCSDVFNQVVKSISIVGSYVGNRADTREALDFFARGLVKSPIKVVGLSTLPEIYEKMEKGQIVGRYVVDTSK
- NADH-dependent Activity Furfural Reductase [1]: ++

B5: Y295C: native Adh1 with the single substitution Y295C (protein, listed as Saccharomyces cerevisiae)
chain: B4 chain with P110S, Y295C
- NADH-dependent Activity Furfural Reductase [1]: +++
- NADH-dependent Activity HMF reductase [2]: +
